Reference: patent publication US20020090379A1, “INDUCING ANTIBODY RESPONSE AGAINST SELF-PROTEINS WITH THE AID OF FOREIGN T-CELL EPITOPES” (priority 1993, published 2002)

How the values were obtained:
[1] = molecular target: A^k molecule (Mus musculus, UniProt P01910+P06343); assay: Competitive inhibition of radiolabelled peptide binding to affinity purified MHC class II A^k; conditions: 125I-labelled marker HEL(46-61)Y, cold peptide >550 μm, pH 5
Experimental: (§1) Peptide-MHC complexes were obtained by incubating ^125I-labelled peptide (10-100 nM) with affinity purified MHC class II molecules (2- 10 μM) at room temperature for 3 days (S. Mouritsen, J Immunol. 148, 1438-1444, 1992). The following peptides were used as radiolabelled markers of binding: Hb(64-76)Y which binds strongly to the E^k molecule and HEL(46-61)Y which binds strongly to the A^k molecule. These complexes were incubated with large amounts of cold non radiolabelled peptide (>550 μm) which should be sufficient to inhibit totally all immunologically relevant MHC class II binding. Either the same peptides were used or were three different overlapping peptides representing the flanking regions as well as the entire OVA(325-336) sequence, containing the T cell epitope, which was substituted into ubiquitin (see Example 2). The three peptides were: TITLEPSQAVHAA (U(12-26)), PSQAVHAAHAEINEKE (U(19-34)) and HAEINEKEGIPPDQQ (U(27-41)). The reaction buffer contained 8 mM citrate, […], and 0.05% NP-40 (pH 5) and peptide-MHC class II complexes were separated (in duplicate) from free peptide by gel filtration using G25 spun columns. Both the radioaictivities of the excluded “void” volume and of the included “void” were measured by gamma spectrometry. The competitive inhibition of maximal binding (in percent) by addition of cold peptide was calculated.

[2] = system: E^k molecule; assay: Competitive inhibition of radiolabelled peptide binding to affinity purified MHC class II E^k; parameters: species or system mouse; conditions: 125I-labelled marker Hb(64-76)Y, cold peptide >550 μm, pH 5
Experimental: as §1

HAEINEKEGIPPDQQ [U(27-41), overlapping peptide of the OVA(325-336) region substituted into ubiquitin]
competitive inhibition of maximal binding by addition of cold peptide [1]: 7.8%
competitive inhibition of maximal binding by addition of cold peptide [2]: 0.0%

HEL(46-61): marker peptide which binds strongly to the A^k molecule; cold version used as competitor [reference compound]
competitive inhibition of maximal binding by addition of cold peptide [1]: 97.4%
competitive inhibition of maximal binding by addition of cold peptide [2]: 0.0%

PSQAVHAAHAEINEKE [U(19-34), overlapping peptide of the OVA(325-336) region substituted into ubiquitin]
competitive inhibition of maximal binding by addition of cold peptide [1]: 44.6%
competitive inhibition of maximal binding by addition of cold peptide [2]: 12.2%

TITLEPSQAVHAA [U(12-26), overlapping peptide of the OVA(325-336) region substituted into ubiquitin]
competitive inhibition of maximal binding by addition of cold peptide [1]: 35.3%
competitive inhibition of maximal binding by addition of cold peptide [2]: 45.6%
